Measured values published in patent US5874308A, “Compositions and methods for modulating cell proliferation using growth factor-polysaccharide binding fusion proteins” (priority 1996, dated 1999).
“Also recorded” adds a separate entry of the source.

Tests used:
CBDN1 = molecular target: T1, CBDN1 (Cellulomonas fimi, UniProt P14090); assay: Isothermal titration microcalorimetry of oligosaccharide binding to CBDN1; details: 35° C.; for Kd: 50-mM PBS, pH 7, read-out: Isothermal Titration Microcalorimetry Ka (converted)
T1 construct: leader (signal) peptide of C. fimi exoglucanase Cex (N); made in house; host or cells: E. coli JM101 (pTugKN1), purified from culture supernatant
T1 sequence (P14090 33-184): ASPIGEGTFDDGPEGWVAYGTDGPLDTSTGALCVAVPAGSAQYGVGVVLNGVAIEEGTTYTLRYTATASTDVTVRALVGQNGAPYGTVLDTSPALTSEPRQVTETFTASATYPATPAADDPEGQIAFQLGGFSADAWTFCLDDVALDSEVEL
Text: Microcalorimetry was used to measure binding thermodynamics for CBDN1 to a wide range of water-soluble oligosaccharides with the aim of identifying a set of suitable ligands for the affinity partition system. […] For both oligosaccharides, CBDN1 binding is as tight or even tighter than nearly all PEG-based affinity ligands (e.g., Cibacron blue-PEG, Procion red-PEG, dinitrophenyl-PEG, diacetic acid-PEG) currently in use in affinity partition systems.

N1 (CBDN1) = molecular target: T2, N1 (CBDN1) (Cellulomonas fimi, UniProt P14090); assay: N1 binding constants by NMR; details: 35° C.; read-out: NMR Ka (converted)
T2 construct: leader (signal) peptide of C. fimi exoglucanase Cex (N); made in house; host or cells: E. coli JM101 (pTugKN1), purified from culture supernatant
T2 sequence (P14090 33-184): T1 sequence (P14090 33-184)

[1] = test system: SLF dependent bone marrow cell line B6SUtA1; assay: MTT proliferation assay of SLF-CBD in solution or bound to BMCC; format: cell-based; details: for proliferative activity in solution (MTT), compared with control SLF: non-immobilized, absence of an immobilization matrix; for distribution of activity between BMCC and supernatant after Factor Xa cleavage: 1 μg/ml BMCC, Factor Xa added; for effect of presence of BMCC on activity: protein concentration varied; for distribution of activity between BMCC and supernatant: bound to 1 μg/ml BMCC, matrix removed by centrifugation and resuspended; for potency when immobilized on cellulose vs in solution (maximum proliferative response, specific activity): immobilized on cellulose (BMCC)
Description: Samples of purified SLF-CBD were diluted in H-SFM. […] In experiments where BMCC was used, 50 μl of a BMCC suspension in H-SFM was added to each well, and in experiments where no BMCC was used 50 μl of H-SFM alone was added.
Statistical analysis of data was carried out with regression curve fitting in two iterations using non-linear regression analysis from the GraFit version 3.0 statistical analysis program (Erithacus Software Ltd., Staines, U.K.).

[2] = Binding of SLF-CBD to Avicel cellulose during purification; details: affinity chromatography on Avicel
Description: The plasmid pSLF/CBD 1.0 was transformed into E. coli JM101 (Yanisch-Perronet al. (1985) Gene 33: 103-119) for expression. Several colonies were scraped from a plate and used to inoculate a 5 ml test tube of Terrific Broth (Tartof and Hobbs, Bethesda Res. Lab. Focus 9: 12) containing […] kanamycin. This tube was incubated with shaking at 37° C. for four hours and then used to inoculate four flasks containing 500 ml of the same medium at 0.2% volume. These flasks were then incubated at 37° C. with shaking at 250 rpm until a cell culture optical density (OD550) […]. The cells were then induced by the addition of 0.1 mM IPTG and shifted to 30° C. with shaking at 100 rpm for a further eight hours. Cells were then harvested and the periplasmic proteins isolated by osmotic shock (Neu and Heppel (1965) J. Biol. Chem. 240: 3685-3692). Five mg of Avicel microcrystalline cellulose (FMC International, Cork, Ireland) was added to either 10 ml of culture supernatant or 1 ml of periplasmic extract and then removed by centrifugation. SDS-PAGE loading buffer was than added to the Avicel, which was then boiled for two minutes and loaded directly onto a gel for SDS-PAGE analysis (Laemmli, supra.) (FIG. 8A).

B6SUtA cells = assay: Activity of SLF-CBD bound to regenerated cellulose coated microtiter plates (MTT); format: cell-based
Description: A 1% (w/v) solution of cellulose acetate was prepared by adding one gram of cellulose acetate (Kodak Inc.) to 99 ml of acetic acid. One hundred μl of this solution was added to each well of the standard 96 well tissue culture plates used above, and the acetic acid allowed to evaporate. One hundred μl of 50 mM NaOH was then added to each well and left for 20 minutes to regenerate a cellulose surface. The NaOH was then poured out, and the wells rinsed three times with PBS. Three hundred μl of 70% (v/v) ethanol was then added to each well, the plate lid replaced, and the ethanol allowed to evaporate as a sterilization step.
Activity tests were carried out as previously described except that a cellulose acetate derived surface was used to immobilize SLF/CBD instead of BMCC. Twenty μl protein test samples were put into cellulose coated wells. […] Activity was measured after 48 h of culture using the […] with data points collected in quadruplicate. […]
Non-tagged SLF was used as a control. In one set of control experiments, SLF was added to cellulose coated tissue culture wells as before, the surface was seeded with fresh cells three times, and the proliferation measured. […] These surfaces were seeded with cells three times and the activity measured.

[3] = BMCC fixed at 1 μg/ml or 14 μg/ml

## OC[C@H]1O[C@@H](O[C@H]2[C@H](O)[C@@H](O)[C@H](O[C@H]3[C@H](O)[C@@H](O)[C@H](O[C@H]4[C@H](O)[C@@H](O)[C@H](O[C@H]5[C@H](O)[C@@H](O)[C@H](O[C@H]6[C@H](O)[C@@H](O)C(O)O[C@@H]6CO)O[C@@H]5CO)O[C@@H]4CO)O[C@@H]3CO)O[C@@H]2CO)[C@H](O)[C@@H](O)[C@@H]1O (stereo partly shown) [Cellohexaose]
CBDN1
  Isothermal Titration Microcalorimetry -TΔS°: 0.79 ± 0.1 kcal/mol
  Isothermal Titration Microcalorimetry ΔH°: -6.9 ± 0.2 kcal/mol
  Kd: 0.0397 mM
N1 (CBDN1)
  Kd: 19.6 µM

## OC[C@H]1O[C@@H](O[C@H]2[C@H](O)[C@@H](O)[C@H](O[C@H]3[C@H](O)[C@@H](O)[C@H](O[C@H]4[C@H](O)[C@@H](O)[C@H](O[C@H]5[C@H](O)[C@@H](O)C(O)O[C@@H]5CO)O[C@@H]4CO)O[C@@H]3CO)O[C@@H]2CO)[C@H](O)[C@@H](O)[C@@H]1O (stereo partly shown) [Cellopentaose]
CBDN1
  Isothermal Titration Microcalorimetry -TΔS°: 0.86 ± 0.1 kcal/mol
  Isothermal Titration Microcalorimetry ΔH°: -6.8 ± 0.2 kcal/mol
  Kd: 0.0559 mM
N1 (CBDN1)
  Kd: 29.4 µM

## OC[C@H]1O[C@@H](O[C@H]2[C@H](O)[C@@H](O)[C@H](O[C@H]3[C@H](O)[C@@H](O)[C@H](O[C@H]4[C@H](O)[C@@H](O)C(O)O[C@@H]4CO)O[C@@H]3CO)O[C@@H]2CO)[C@H](O)[C@@H](O)[C@@H]1O (stereo partly shown) [Cellotetraose]
CBDN1
  Isothermal Titration Microcalorimetry -TΔS°: 1.4 ± 0.1 kcal/mol
  Isothermal Titration Microcalorimetry ΔH°: -6.4 ± 0.2 kcal/mol
  Kd: 0.244 mM
N1 (CBDN1)
  Kd: 238 µM

## OC[C@H]1O[C@@H](O[C@H]2[C@H](O)[C@@H](O)[C@H](O[C@H]3[C@H](O)[C@@H](O)C(O)O[C@@H]3CO)O[C@@H]2CO)[C@H](O)[C@@H](O)[C@@H]1O (stereo partly shown) [Cellotriose]
N1 (CBDN1)
  Kd: 5560 µM

B1: CBD: recombinant cellulose binding domain of Cex, negative control (protein)
chain: SGPAGCQVLWGVNQWNTGFTANVTVKNTSSAPVDGWTLTFSFPSGQQVTQAWSSTVTQSGSAVTVRNAPWNGSIPAGGTAQFGFNGSHTGTNAAPTAFSLNGTPCTVG
[1]
  proliferative activity in solution (MTT), compared with control SLF: did not stimulate the proliferation

B2: SLF-CBD: fusion protein: extracellular domain of murine steel factor linked to the cellulose binding domain of Cellulomonas fimi exoglucanase Cex (protein)
chain: KEICGNPVTDNVKDITKLVANLPNDYMITLNYVAGMDVLPSHCWLRDMVIQLSLSLTTLLDKFSNISEGLSNYSIIDKLGKIVDDLVLCMEENAPKNIKESPKRPETRSFTPEEFFSIFNRSIDAFKDFMVASDTSDCVLSSTLGPEKDSRVSVTKPFMLPPVAASSLRNDSSSSNRKAAKAPEDSGLQPTPTPTTPTPTPTTPTPTPTSGPAGCQVLWGVNQWNTGFTANVTVKNTSSAPVDGWTLTFSFPSGQQVTQAWSSTVTQSGSAVTVRNAPWNGSIPAGGTAQFGFNGSHTGTNAAPTAFSLNGTPCTVG
[2]
  binding of the fusion protein to cellulose: strong and difficult to reverse
B6SUtA cells; cellulose coated microtiter plate
  fraction bound to reconstituted cellulose surface (activity on plate vs supernatant): essentially all
B6SUtA cells; three consecutive rounds of 48 h cell culture
  proliferative activity after repeated use of the same surface: no loss in proliferative activity; also recorded: no loss of proliferative activity; also recorded: without loss of growth-stimulating activity
[1]; 0.6 nM SLF-CBD, in solution
  neutralization of activity by anti-SLF neutralizing polyclonal antibodies: neutralized
[1]
  distribution of activity between BMCC and supernatant after Factor Xa cleavage: the bulk of the activity was found in the supernatant
  distribution of activity between BMCC and supernatant: the bulk of the activity was associated with the BMCC; also recorded: most of the activity was associated with the BMCC particles
  potency when immobilized on cellulose vs in solution (maximum proliferative response, specific activity): significantly more potent; also recorded: to a greater extent than non-immobilized steel factor
  proliferative activity in solution (MTT), compared with control SLF: similar
[1]; listed as SLF/CBD
  distribution of activity between BMCC and supernatant after Factor Xa cleavage: the activity was no longer associated with the BMCC
[1]; BMCC constant at 1 μg/ml (1.22 cm^2/ml)
  SLF-CBD concentration at maximum stimulatory activity: about 2000 pM
[1]; [3]
  ED50 (protein concentration for half maximal response) in presence vs absence of BMCC: decrease
  total cell proliferation in presence vs absence of BMCC: increase
  effect of presence of BMCC on activity: clearly more active in the presence of BMCC
[1]; SLF-CBD held constant at 1500 pM, BMCC varied
  BMCC concentration at maximum activity: 44 µg/mL
[1]; soluble form
  ED50 of soluble fusion protein vs control protein: identical
  maximum cell density generated vs control protein: not quite as great

B3: control SLF: recombinant extracellular domain of murine steel factor without affinity tag (R&D systems), positive control (protein)
chain: KEICGNPVTDNVKDITKLVANLPNDYMITLNYVAGMDVLPSHCWLRDMVIQLSLSLTTLLDKFSNISEGLSNYSIIDKLGKIVDDLVLCMEENAPKNIKESPKRPETRSFTPEEFFSIFNRSIDAFKDFMVASDTSDCVLSSTLGPEKDSRVSVTKPFMLPPVAASSLRNDSSSSNRKAAKAPEDSGLQ
[1]; [3]
  effect of presence of BMCC on activity: no effect
[1]
  distribution of activity between BMCC and supernatant: most of the activity was in the supernatant
  potency when immobilized on cellulose vs in solution (maximum proliferative response, specific activity): not observed
[1]; listed as non-tagged SLF control
  distribution of activity between BMCC and supernatant: most of the activity was associated with the supematant
